Values joined by “and” are separate entries in the source; they are usually repeats but may differ in a detail not shown here. Equal values may be shown once.
Settings: Aspergillus oryzae (strain ATCC 42149 / RIB 40), whole UniProt chain shown
[1] = pH 1, Thermal, NMR, HCl, KCl 0.15 M, reversible: yes
[2] = pH 1.2, 25 °C, Thermal, Absorbance, glycine-HCl 30 mM, NaCl 0.10 M
[3] = pH 1.6, Thermal, CD, HCl, reversible: yes
[4] = pH 2, 15 °C, GdnHCl, CD, HCl, reversible: yes
[5] = pH 2.08, Thermal, CD, HCl, reversible: yes
[6] = pH 2.2, Thermal, Absorbance, glycine 50 mM
[7] = pH 2.2, Thermal, CD, glycine 50 mM
[8] = pH 2.2, Thermal, Fluorescence, glycine 50 mM
[9] = pH 2.5, Thermal, DSC, glycine 50 mM, NaCl 200 mM, reversible: yes
[10] = pH 4.5, Thermal, DSC, Potassium acetate 50 mM, reversible: no
[11] = pH 4.6, 25 °C, GdnHCl, Absorbance, Sodium acetate 100 mM, reversible: yes
[12] = pH 4.6, 30 °C, GdnHCl, Absorbance, Sodium acetate 100 mM, reversible: yes
[13] = pH 4.6, 35 °C, GdnHCl, Absorbance, Sodium acetate 100 mM, reversible: yes
[14] = pH 4.6, Thermal, Absorbance, Sodium acetate 50 mM
[15] = pH 5, 10 °C, GdnHCl, Fluorescence, Sodium acetate 50 mM
[16] = pH 5, Thermal, Absorbance, Sodium acetate 50 mM, reversible: Yes
[17] = pH 5, Thermal, Absorbance, Sodium acetate 0.10 M, NaCl 0.10 M, reversible: yes
[18] = pH 5, Thermal, Absorbance, sodium acetate 5-20 mM, reversible: yes
[19] = pH 5, Thermal, CD, sodium acetate 5-20 mM, reversible: yes
[20] = pH 5, Thermal, DSC, acetate 50 mM, reversible: no
[21] = pH 5, Thermal, Fluorescence, Sodium acetate 0.05 M, reversible: yes
[22] = pH 5.5, Thermal, Absorbance, MES 50 mM, reversible: yes
[23] = pH 5.5, Thermal, DSC, Potassium acetate 15 mM
[24] = pH 5.5, Thermal, DSC, Potassium acetate 50 mM, reversible: yes
[25] = pH 5.5, Thermal, DSC, acetate 30 mM
[26] = pH 5.5, Thermal, DSC, sodium acetate 10 mM, KCl 100 mM, reversible: yes
[27] = pH 6, Thermal, Absorbance, MES 0.05 M, reversible: no
[28] = pH 6, Thermal, CD, MES 10 mM, KCl 0.1 M
[29] = pH 6, Thermal, DSC, Sodium phosphate 50 mM, NaCl 200 mM, reversible: yes
[30] = pH 6.35, 25 °C, Urea, Absorbance, Glycinamide 0.1 M
[31] = pH 6.8, Thermal, DSC, phosphate 10 mM, reversible: no
[32] = pH 7, 20 °C, GdnHCl, CD, Mops 50 mM
[33] = pH 7, 20 °C, GdnHCl, Fluorescence, Mops 50 mM
[34] = pH 7, 20 °C, GdnHCl, SAXS, Mops 50 mM
[35] = pH 7, Thermal, Absorbance, phosphate 0.03 M
[36] = pH 7, Thermal, CD, MOPS 20 mM, reversible: Yes (>90%)
[37] = pH 7, Thermal, CD, Sodium cacodylate 50 mM, reversible: yes
[38] = pH 7, Thermal, DSC, MES 30 mM, reversible: yes
[39] = pH 7, Thermal, DSC, bis-Tris-HCl 50 mM, reversible: yes
[40] = pH 7, Thermal, Fluorescence, MOPS 30 mM, NaCl 0.1 M, reversible: yes
[41] = pH 7, Thermal, Fluorescence, MOPS 30 mM
[42] = pH 7.05, 25 °C, Urea, Absorbance, Glycinamide 0.1 M
[43] = pH 7.1, Thermal, Absorbance, None, reversible: Yes (>90%)
[44] = pH 7.1, Thermal, CD, None, reversible: Yes (>90%)
[45] = pH 8, 25 °C, GdnHCl, CD, Sodium phosphate 50 mM, NaCl 25 mM, reversible: Yes

B1: Guanyl-specific ribonuclease T1 wild type, P00651 (protein)
chain: MMYSKLLTLTTLLLPTALALPSLVERACDYTCGSNCYSSSDVSTAQAAGYQLHEDGETVGSNSYPHKYNNYEGFDFSVSSPYYEWPILSSGDVYSGGSPGADRVVFNENNQLAGVITHTGASGNNFVECT
For B1, the Tm [1] was 42.4 °C, the “heat capacity change of unfolding” value [1] was 1.79 kcal/mol/K and the “unfolding enthalpy (van 't Hoff)” value [1] was 43.2 kcal/mol. For the same protein, the “heat capacity change of unfolding” value [2] was 1.47 kcal/mol/K, the “unfolding enthalpy (van 't Hoff)” value [2] was 54.8 kcal/mol and the unfolding free energy [2] was 1 kcal/mol. The Tm [3] was 23 °C, the unfolding free energy [3] was 1.72 kcal/mol and the Tm (pH 1.9, Thermal, CD, HCl, reversible: yes) was 25.8 °C. The “denaturant midpoint (higher = more stable)” value (from here on “denaturant midpoint”) [4] was 1.86 M, the unfolding free energy [4] was 3.68 kcal/mol and the Tm [5] was 28.7 °C. The unfolding free energy [5] was 3.16 kcal/mol, the Tm [6] was 8.3 °C and the “unfolding enthalpy (van 't Hoff)” value [6] was 49 kcal/mol. For the same protein, the Tm [7] was 20.2 °C, the “unfolding enthalpy (van 't Hoff)” value [7] was 20 kcal/mol and the Tm [8] was 9.3 °C. The “unfolding enthalpy (van 't Hoff)” value [8] was 24 kcal/mol, the Tm [9] was 40 °C and the “heat capacity change of unfolding” value [9] was 1.15 kcal/mol/K. The “unfolding enthalpy (calorimetric)” value [9] was 85 kcal/mol, the Tm (pH 4.4, Thermal, NMR, Unknown) was 52.3 °C and the “unfolding enthalpy (van 't Hoff)” value (pH 4.4, Thermal, NMR, Unknown) was 127 kcal/mol. For the same protein, the Tm [10] was 57 °C, the “unfolding enthalpy (calorimetric)” value [10] was 106 kcal/mol and the denaturant m value [11] was 2.56 kcal/mol/M. For the same protein, the “denaturant midpoint” value [11] was 2.82 M, the unfolding free energy [11] was 7.22 kcal/mol and the denaturant m value [12] was 2.65 kcal/mol/M. For the same protein, the “denaturant midpoint” value [12] was 2.56 M, the unfolding free energy [12] was 6.59 kcal/mol and the denaturant m value [13] was 2.48 kcal/mol/M. For the same protein, the “denaturant midpoint” value [13] was 2.25 M, the unfolding free energy [13] was 5.6 kcal/mol and the Tm [14] was 56.2 °C. The “unfolding enthalpy (van 't Hoff)” value [14] was 107 kcal/mol, the denaturant m value [15] was 1.84 kcal/mol/M and the “denaturant midpoint” value [15] was 5.18 M. For the same protein, the unfolding free energy [15] was 9.54 kcal/mol, the unfolding free energy (pH 5, 25 °C, GdnHCl, CD, Sodium acetate-Acetic acid 0.1 M, reversible: yes) was 10.5 kcal/mol and the unfolding free energy (pH 5, 25 °C, GdnHCl, DSC, Sodium acetate-Acetic acid 0.1 M, reversible: yes) was 11 kcal/mol. For the same protein, the unfolding free energy (pH 5, 40 °C, Thermal, Absorbance, Sodium acetate 50 mM, reversible: Yes) was 5.06 kcal/mol, the Tm [16] was 58 °C and the “unfolding enthalpy (van 't Hoff)” value [16] was 104 kcal/mol. For the same protein, the Tm (pH 5, Thermal, Absorbance, Sodium acetate 50 mM, reversible: yes) was 44.4 °C, the Tm [17] was 63.3 °C and the “unfolding enthalpy (van 't Hoff)” value [17] was 118 kcal/mol. For the same protein, the Tm (pH 5, Thermal, Absorbance, sodium acetate 50 mM, reversible: yes) was 61.5 °C, the Tm [18] was 58.2 °C and the “unfolding enthalpy (van 't Hoff)” value [18] was 102 kcal/mol. The Tm (pH 5, Thermal, CD, sodium acetate 50 mM) was 53.7 °C, the Tm [19] was 64.3 °C and the “unfolding enthalpy (van 't Hoff)” value [19] was 90.8 kcal/mol. For the same protein, the Tm [20] was 58.9 °C, the “unfolding enthalpy (calorimetric)” value [20] was 89.6 kcal/mol and the Tm (pH 5, Thermal, Fluorescence, Sodium acetate 0.01 M, reversible: yes (>98%)) was 58.8 °C. For the same protein, the Tm [21] was 56.7 °C, the “unfolding enthalpy (van 't Hoff)” value [21] was 117 kcal/mol and the Tm (pH 5, Thermal, Fluorescence, Sodium formate 0.1 M, NaCl 0.25 M, reversible: yes) was 59.3 °C. The Tm [22] was 58 °C, the “unfolding enthalpy (van 't Hoff)” value [22] was 103 kcal/mol and the Tm [23] was 62 °C. The “unfolding enthalpy (calorimetric)” value [23] was 109 kcal/mol, the “unfolding enthalpy (van 't Hoff)” value [23] was 110 kcal/mol and the Tm [24] was 60.9 °C. The “heat capacity change of unfolding” value [24] was 1 kcal/mol/K, the “unfolding enthalpy (calorimetric)” value [24] was 99.1 kcal/mol and the Tm [25] was 64 °C. For the same protein, the “heat capacity change of unfolding” value [25] was 1.24 kcal/mol/K, the “unfolding enthalpy (calorimetric)” value [25] was 116 kcal/mol and the Tm [26] was 60.7 °C. The “unfolding enthalpy (calorimetric)” value [26] was 107 kcal/mol, the unfolding free energy (pH 6, 25 °C, Thermal, CD, MES 10 mM, KCL 0.1 M) was 9.3 kcal/mol and the Tm [27] was 51.9 °C. The “unfolding enthalpy (van 't Hoff)” value [27] was 97.5 kcal/mol, the Tm (pH 6, Thermal, Absorbance, Sodium acetate 30 mM, NaCl 0.10 M, reversible: yes) was 61.6 °C and the Tm [28] was 59.6 °C. For the same protein, the “unfolding enthalpy (van 't Hoff)” value [28] was 112 kcal/mol, the Tm [29] was 63.7 °C and the “heat capacity change of unfolding” value [29] was 1.3 kcal/mol/K. The “unfolding enthalpy (calorimetric)” value [29] was 114 kcal/mol, the Tm (pH 6, Thermal, DSC, citrate 20 mM, NaCl 55 mM, reversible: yes) was 65 °C and the Tm (pH 6, Thermal, DSC, phosphate, reversible: yes(>90%)) was 63.2 °C. For the same protein, the denaturant m value [30] was 1.49 kcal/mol/M, the “denaturant midpoint” value [30] was 7.16 M and the unfolding free energy (pH 6.45, 26 °C, GdnHCl, CD, Sodium phosphate 10 mM, KCl 0.1 M, reversible: yes) was 14.4 kcal/mol. The Tm [31] was 63.8 °C, the “unfolding enthalpy (calorimetric)” value [31] was 114 kcal/mol and the unfolding free energy (pH 7, 0 °C, Urea, Fluorescence, MOPS 30 mM, NaCl 0.1 M, reversible: yes) was 1.31 kcal/mol. For the same protein, the unfolding free energy (pH 7, 2 °C, Urea, Fluorescence, MOPS 30 mM, NaCl 0.1 M, reversible: yes) was 1.2 kcal/mol, the unfolding free energy (pH 7, 5 °C, Urea, Fluorescence, MOPS 30 mM, NaCl 0.1 M, reversible: yes) was 0.85 kcal/mol and the denaturant m value [32] was 2.3 kcal/mol/M. The “denaturant midpoint” value [32] was 2.6 M, the denaturant m value [33] was 1.9 kcal/mol/M and 1.8 kcal/mol/M and the “denaturant midpoint” value [33] was 2.6 M and 2.3 M. The denaturant m value [34] was 1.9 kcal/mol/M, the “denaturant midpoint” value [34] was 2.5 M and the unfolding free energy (pH 7, 25 °C, Urea, Fluorescence, MOPS 30 mM, reversible: yes) was 5.5 kcal/mol. For the same protein, the “unfolding enthalpy (van 't Hoff)” value [35] was 115 kcal/mol and 112 kcal/mol and 104 kcal/mol, the unfolding free energy [35] was 8.8 kcal/mol and 8 kcal/mol and the Tm [36] was 61.7 °C. For the same protein, the “unfolding enthalpy (van 't Hoff)” value [36] was 112 kcal/mol, the Tm [37] was 52.5 °C and the “unfolding enthalpy (van 't Hoff)” value [37] was 97.7 kcal/mol. For the same protein, the Tm [38] was 53.3 °C, the “heat capacity change of unfolding” value [38] was 1.6 kcal/mol/K and the “unfolding enthalpy (calorimetric)” value [38] was 84.7 kcal/mol. The Tm (pH 7, Thermal, DSC, Potassium phosphate 0.1 M) was 44.4 °C, the Tm [39] was 65.6 °C and the “unfolding enthalpy (calorimetric)” value [39] was 110 kcal/mol. For the same protein, the Tm [40] was 12.4 °C, the “heat capacity change of unfolding” value [40] was 1.59 kcal/mol/K and the “unfolding enthalpy (van 't Hoff)” value [40] was 39.9 kcal/mol. The Tm [41] was 48.3 °C, the “unfolding enthalpy (van 't Hoff)” value [41] was 96 kcal/mol and the denaturant m value [42] was 1.45 kcal/mol/M. For the same protein, the “denaturant midpoint” value [42] was 7.59 M, the unfolding free energy [42] was 10.9 kcal/mol and 3.97 kcal/mol and the Tm [43] was 62.8 °C. For the same protein, the “unfolding enthalpy (van 't Hoff)” value [43] was 66 kcal/mol, the Tm [44] was 61.4 °C and the “unfolding enthalpy (van 't Hoff)” value [44] was 122 kcal/mol. For the same protein, the Tm (pH 7.4, Thermal, CD, PBS) was 61.1 °C, the “unfolding enthalpy (van 't Hoff)” value (pH 7.4, Thermal, CD, PBS) was 105 kcal/mol and the unfolding free energy (pH 8, 15 °C, Urea, CD, Tris-HCl 0.1 M, NaCl 2.5 M) was 2.61 kcal/mol. The denaturant m value [45] was 1.99 kcal/mol/M, the “denaturant midpoint” value [45] was 3.1 M and the Tm (pH 8, Thermal, CD, Sodium phosphate 50 mM, NaCl 25 mM, reversible: Yes) was 65.6 °C. For the same protein, the “denaturant midpoint” value (pH 8.4, 23 °C, GdnHCl, Fluorescence, Tris-HCl 0.1 M) was 2.25 M and the “denaturant midpoint” value (pH 8.4, 23 °C, GdnSCN, Fluorescence, Tris-HCl 0.1 M) was 0.75 M.
